Test results taken from the supplement of paper PMC11780869.

Tested on: Bacillus subtilis
Assay: cleaved RNA product abundance (RNA/gDNA barcode ratio) relative to median wild-type variant (ratio to wild type); higher = more accumulation of the downstream cleavage product
How it was run: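 B. subtilis strains with chromosomally integrated reporter mRNAs (truncated aprE or tetM) holding barcoded, mutagenized RNase Y cleavage-site windows grew in LB at 37°C from OD600 0.0003 to 0.3. Cleaved product abundance is each construct's RNA:gDNA barcode ratio, scaled to the median construct with the unmutated site. It came from sequencing barcodes of gel-selected, reverse-transcribed cleaved RNA and of genomic DNA.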

[1] = experiment (reporter, strain, medium): exp 8a: truncated aprE reporter, strain BJT201 with 2% xylose (RNase J1 expressed), cleavage site: glnRA (positions -5 to +31 mutated)
[2] = experiment (reporter, strain, medium): exp 4a: truncated aprE reporter, strain BJT201 with 2% xylose (RNase J1 expressed), cleavage site: cggR-gapA (positions -7 to +36 mutated)
[3] = experiment (reporter, strain, medium): exp 2b: truncated aprE reporter, strain BJT200, cleavage site: cggR-gapA (positions -7 to +36 mutated)

Row | Sequence | cleaved RNA product abundance [1] | cleaved RNA product abundance [2] | other results
1 | CGACATGTCCCGCTTCTTTCATTAATCCGTTAGCAACAGTTTTGCTATATACATTTACCTTTTAAGAGGAGGAAT | 0.814 |  | 
2 | CGACATGTCCCGCTTCTTTCATTAATCCGTTAGCAAATGTTTTACTATATACATTTACCTTTTAAGAGGAGGAAT | 0.73 |  | 
3 | ACAGACGAAGGAGCCGCAAAGAAGTTATTACGGGATGAATAATGCCTCAATATAAATATCTCTCACTTATTTAAA |  | 0.128 | 
4 | CGACATGTCCCGCTTCTTTCATTAATCCGTTAGCAATTGTTTTGCTATATACATTAACCTTTTAAGAGGAGGAAT | 1.62 |  | 
5 | CGACATGTCCCGCTTCTTTCATTAATCCGTAAACAACTCTTTTGCTATATACATTTACCTTTTAAGAGGAGGAAT | 0.202 |  | 
6 | CGACATGTCCCGCTTCTTTCATTAATCCGATAACAACTGTTTTGCTATATACATTTACCTTTTAAGAGGAGGAAT | 0.201 |  | 
7 | ACAGACGAAGGAGCCGCATATAAGTTATTAATGGATGAATAATCCCTCAATATAAATATCTCTCACTTATTTAAA |  | 0.131 | 
8 | CGACATGTCCCGCTTCTTTCATTAATCCGTTAGCAACTGTTTTGCTATATATATTTACCCTTTAAGAGGAGGAAT | 0.959 |  | 
9 | ACAGACGAAGGAGCCGCAAAGAAGTTATTTAGGGATGAATAATCCGTCAATATAAATATCTCTCACTTATTTAAA |  | 0.247 | cleaved RNA product abundance [3]: 0.169
10 | ACAGACGAAGGAGCCGCAAAGAATTTATGAAGGGATGAATAATCCCTCAATATAAATATCTCTCACTTATTTAAA |  | 0.325 | 
11 | ACAGACGAAGGAGCCGCATAGAAGTTATTTAGGGATGAATAATCCCTCAATATAAATATCTCTCACTTATTTAAA |  | 0.962 | 
12 | ACAGACGAAGGAGCCGCAAAAAAGTTATTAAGGTATGAATAATCCATCAATATAAATATCTCTCACTTATTTAAA |  | 0.23 | 
13 | ACAGACGAAGGAGCCGCAAAGAAGTTATTAAGGGATGAACAATCCCACAATATAAATATCTCTCACTTATTTAAA |  | 0.364 | 
14 | CGACATGTCCCGCTTCTTTCATTAATACGTTAGCAACTGTTTTGCTATAAACATTTACCTTTTAAGAGGAGGAAT | 0.505 |  | 
15 | ACAGACGAAGGAGCCGCAAAGAAGTTATTTAGGGATGAACAATCCCTCAATATAAATATCTCTCACTTATTTAAA |  | 0.85 | 
16 | ACAGACGAAGGAGCCGCAAAGAAGTTATTAAGGGATAAATTATCCCTCAATATAAATATCTCTCACTTATTTAAA |  | 1.03 | cleaved RNA product abundance [3]: 1.07
17 | ACAGACGAAGGAGCCGCAAAGAAGTTTTTAAGGGATGAATAATCACTCAATATAAATATCTCTCACTTATTTAAA |  | 0.0945 | cleaved RNA product abundance [3]: 0.125
18 | CGACATGTCCCGCTTCTTTCATTAATCTGTTAGCAACTATTTTGCTATATACATTTACCTTTTAAGAGGAGGAAT | 1.77 |  | 
19 | CGACATGTCCCGCTTCTTTCATTACTACCTTAGCAACTGTTTTGCTATATACATTTACCTTTTAAGAGGAGGAAT | 0.4 |  | 
20 | CGACATGTCCCGCTTCTTTCATTAATCCGTTAGCAACTGATTTGCAATATACATTTACCTTTTAAGAGGAGGAAT | 0.49 |  | 
21 | ACAGACGAAGGAGCCGCCAAGAAGTTATTAAGGGATGAATAATCCATCAATATAAATATCTCTCACTTATTTAAA |  | 0.327 | 

Row | Sequence | cleaved RNA product abundance [1] | cleaved RNA product abundance [2] | other results
22 | CGACATGTCCCGCTTCTTTCATTAATCCGTTAGCATCTGTTTTGCTATATTCATTTACCTTTTAAGAGGAGGAAT | 0.31 |  | 
23 | ACAGACGAAGGAGCCGCAAAGAAATTATTAAGAGATGAATAATCCCTCAATATAAATATCTCTCACTTATTTAAA |  | 0.112 | cleaved RNA product abundance [3]: 0.121
24 | ACAGACGAAGGAGCCGCAAAGAAGTTATTAAGGGATGTAAAATCCCTCAATATAAATATCTCTCACTTATTTAAA |  | 1.04 | 
25 | ACAGACGAAGGAGCCGCAAAGAAGTTATTAAGGGACGAATAATCCCTCAATATAAATCTCTCTCACTTATTTAAA |  | 0.53 | 
26 | ACAGACGAAGGAGCCGCAATGAAGTTATTAAGGAATGAATAATCCCTCAATATAAATATCTCTCACTTATTTAAA |  | 0.102 | cleaved RNA product abundance [3]: 0.131
27 | ACAGACGAAGGAGCCGCAAATAAGTTATTAAGGGATGAATCATCCCTCAATATAAATATCTCTCACTTATTTAAA |  | 0.899 | cleaved RNA product abundance [3]: 0.769
28 | ACAGACGAAGGAGCCGCAAAGAAGTTATTAATGAATGAATAATCCCTCAATATAAATATCTCTCACTTATTTAAA |  | 0.137 | cleaved RNA product abundance [3]: 0.0941
29 | CGACATGTCCCGCTTCTTTCATTACTCCGTTTACAACTGTTTTGCTATATACATTTACCTTTTAAGAGGAGGAAT | 0.368 |  | 
30 | CGACATGTCCCGCTTCTTTCATTAATCCGTTAACAACTGTTTTGCTATATACATTTGCATTTTAAGAGGAGGAAT | 0.202 |  | 
31 | CGACATGTCCCGCTTCTTTCATTAATCCGTTAGCAACTGTTTTGCTATAGACATTTAACTTTTAAGAGGAGGAAT | 1.15 |  | 
32 | CGACATGTCCCGCTTCTTTCATTACTCCGTTAGCAACTGTTTTGGTATATACATTTACCTTTTAAGAGGAGGAAT | 0.278 |  | 
33 | CGACATGTCCCGCTTCTTTCATTAATCCGTTAGCAACTGTTTGGCTATATAAATTTACCTTTTAAGAGGAGGAAT | 0.518 |  | 
34 | ACAGACGAAGGAGCCGCAAAGAAGTTATTAATGGATGAATAATCCCTCAATATAATTATCTCTCACTTATTTAAA |  | 0.108 | cleaved RNA product abundance [3]: 0.13
35 | ACAGACGAAGGAGCCGCAAAGAAATTATTAAGGGATGAATAATCCCTTAATATAAATATCTCTCACTTATTTAAA |  | 0.451 | 
36 | ACAGACGAAGGAGCCGCATAGAAGTTATTAAGGGATGAATAATCCCTAAATATAAATATCTCTCACTTATTTAAA |  | 0.658 | 
37 | ACAGACGAAGGAGCCGCAAAGAAATAATTAAGCGATGAATAATCCCTCAATATAAATATCTCTCACTTATTTAAA |  | 0.166 | 
38 | ACAGACGAAGGAGCCGCAAAGAAGTAATTAAGGCATGAATAATCCCTCAATATAAATATCTCTCACTTATTTAAA |  | 0.0969 | 
39 | CGACATGTCCCGCTTCTTTCATTAATCCGTGATCAACTGTTTTGCTATATACATTTACCTTTTAAGAGGAGGAAT | 0.346 |  | 
40 | ACAGACGAAGGAGCCGCAAAGAAGTTATTAAGGGATGAATATTCGCTCAATATAAATATCTCTCACTTATTTAAA |  | 0.086 | 
41 | ACAGACGAAGGAGCCGCAAATAAGTCATTAAGGGATGAATAATCCCTCAATATAAATATCTCTCACTTATTTAAA |  | 0.28 | 
42 | ACAGACGAAGGAGCCGCAAAGAAGTTCTTAAGGGATGAATAATCCCTCAATTTAAATATCTCTCACTTATTTAAA |  | 0.0838 | 

Row | Sequence | cleaved RNA product abundance [1] | cleaved RNA product abundance [2] | other results
43 | ACAGACGAAGGAGCCGCAAAGAAGTTATCAAGAGATGAATAATCCCTCAATATAAATATCTCTCACTTATTTAAA |  | 0.116 | cleaved RNA product abundance [3]: 0.0893
44 | ACAGACGAAGGAGCCGCAAAGAAGTTATTAAGGGATGTATAATCCCTCATTATAAATATCTCTCACTTATTTAAA |  | 0.387 | 
45 | CGACATGTCCCGCTTCTTTCATTAATTCGTTAGCAACTGTATTGCAATATACATTTACCTTTTAAGAGGAGGAAT | 0.329 |  | 
46 | ACAGACGAAGGAGCCGCAAAGAAGTTATTAAGGGATGAATAACCCCTCAATATATATATCTCTCACTTATTTAAA |  | 0.739 | 
47 | ACAGACGAAGGAGCCGCAAAGTAGTTATTAAGGGAGGAATAATCCCTCAATATAAATATCTCTCACTTATTTAAA |  | 0.557 | 
48 | CGACATGTCCCGCTTCTTTCATTAATCCGTTAGCAAATGTTTTGCTATAAACATTTACCTTTTAAGAGGAGGAAT | 0.584 |  | 
49 | ACAGACGAAGGAGCCGCAAAGAAGTTATTAAGGGATGATAAATCCCTCAATATAAATATCTCTCACTTATTTAAA |  | 0.853 | cleaved RNA product abundance [3]: 0.648
50 | ACAGACGAAGGAGCCGCAAAGAAGTTATTAAGAGATGAATAATCCCTCACTATAAATATCTCTCACTTATTTAAA |  | 0.131 | 
51 | ACAGACGAAGGAGCCGCAAAGAAGTTATTAAGGGATGAATAATCCCCAAATATAAATATCTCTCACTTATTTAAA |  |  | cleaved RNA product abundance [3]: 0.336
52 | CGACATGTCCCGCTTCTTTCATTAATCCCTTACCAACTGTTTTGCTATATACATTTACCTTTTAAGAGGAGGAAT | 0.187 |  | 
53 | CGACATGTCCCGCTTCTTTCATTAACCCGTTACCAACTGTTTTGCTATATACATTTACCTTTTAAGAGGAGGAAT | 0.162 |  | 
54 | CGACATGTCCCGCTTCTTTCATTAATTCGTCAGCAACTGTTTTGCTATATACATTTACCTTTTAAGAGGAGGAAT | 0.639 |  | 
55 | ACAGACGAAGGAGCCGCAAAAAAGTTATTAAGGGAAGAATAATCCCTCAATATAAATATCTCTCACTTATTTAAA |  | 0.403 | cleaved RNA product abundance [3]: 0.426
56 | ACAGACGAAGGAGCCGCAAAGAAGTTATTAAGAGATGAATAATCCCTAAATATAAATATCTCTCACTTATTTAAA |  | 0.158 | cleaved RNA product abundance [3]: 0.141; cleaved RNA product abundance (experiment (reporter, strain, medium): exp 6: tetM reporter, strain 168, cleavage site: cggR-gapA (positions -7 to +36 mutated)): 0.179
57 | ACAGACGAAGGAGCCGCGAAGAAGTTATTAAGGGATGAATAATCCCTCAATATAAATAACTCTCACTTATTTAAA |  | 0.969 | cleaved RNA product abundance [3]: 1.05
58 | ACAGACGAAGGAGCCGCAAAGAAGTAATTAAGGGATGAATAATCCCTCAATGTAAATATCTCTCACTTATTTAAA |  | 0.114 | 
59 | ACAGACGAAGGAGCCGCAAAGAAGTTATTAAGGGATGGATAATCCGTCAATATAAATATCTCTCACTTATTTAAA |  | 0.149 | 
60 | ACAGACGAAGGAGCCGCAAAGAAGTTATTAAGGGATCAATTATCCCTCAATATAAATATCTCTCACTTATTTAAA |  | 1.23 | 
61 | ACAGACGAAGGAGCCGCAAAGAAGTTATTAAGGGAAGAATAATCCCTCAAAATAAATATCTCTCACTTATTTAAA |  | 0.182 | cleaved RNA product abundance [3]: 0.17
